± gives the uncertainty stated by the source.
Test: abundance fitness (aPCA) (normalised: wild type 0, dead -1); higher = more abundant; growth selection in yeast, the domain comes from the species named
Details: Homo sapiens
For “DnaJ homolog subfamily B member 1 K21Q, P25685”, the abundance fitness was 0.122 ± 0.051. For “DnaJ homolog subfamily B member 1 Q27A, P25685”, the abundance fitness was -0.15 ± 0.11. For “DnaJ homolog subfamily B member 1 A49Y, P25685”, the abundance fitness was -0.277 ± 0.18. “DnaJ homolog subfamily B member 1 S56W, P25685” gave an abundance fitness of -0.853 ± 0.11. Work on “DnaJ homolog subfamily B member 1 D57A, P25685” yielded an abundance fitness of -0.269 ± 0.088. Substance “DnaJ homolog subfamily B member 1 E50W, P25685” has an abundance fitness of -0.34 ± 0.11. With “DnaJ homolog subfamily B member 1 R59K, P25685” the abundance fitness was -0.104 ± 0.11. For “DnaJ homolog subfamily B member 1 D34Y, P25685”, the abundance fitness was -0.135 ± 0.081. For “DnaJ homolog subfamily B member 1 R25E, P25685”, the abundance fitness was 0.173 ± 0.082. Work on “DnaJ homolog subfamily B member 1 N36P, P25685” yielded an abundance fitness of -0.096 ± 0.086. Substance “DnaJ homolog subfamily B member 1 R59Q, P25685” has an abundance fitness of -0.194 ± 0.13. With “DnaJ homolog subfamily B member 1 K60C, P25685” the abundance fitness was -0.696 ± 0.21. “DnaJ homolog subfamily B member 1 A41Q, P25685” showed an abundance fitness of -0.134 ± 0.077. With “DnaJ homolog subfamily B member 1 L55N, P25685” the abundance fitness was -0.603 ± 0.17. “DnaJ homolog subfamily B member 1 N36F, P25685” gave an abundance fitness of -0.415 ± 0.12. With “DnaJ homolog subfamily B member 1 D17E, P25685” the abundance fitness was -0.095 ± 0.1. For “DnaJ homolog subfamily B member 1 Y24M, P25685”, the abundance fitness was -0.223 ± 0.074. With “DnaJ homolog subfamily B member 1 A49R, P25685” the abundance fitness was 0.021 ± 0.082. In the case of “DnaJ homolog subfamily B member 1 R13D, P25685”, the abundance fitness is reported as -0.117 ± 0.22. Substance “DnaJ homolog subfamily B member 1 L11H, P25685” has an abundance fitness of -0.795 ± 0.15. Work on “DnaJ homolog subfamily B member 1 F45N, P25685” yielded an abundance fitness of -0.221 ± 0.1. “DnaJ homolog subfamily B member 1 I48W, P25685” showed an abundance fitness of -1 ± 0.11. “DnaJ homolog subfamily B member 1 L9Y, P25685” gave an abundance fitness of -0.818 ± 0.11. “DnaJ homolog subfamily B member 1 D4H, P25685” gave an abundance fitness of -0.236 ± 0.44. In the case of “DnaJ homolog subfamily B member 1 K35C, P25685”, the abundance fitness is reported as -0.46 ± 0.11. For “DnaJ homolog subfamily B member 1 K21D, P25685”, the abundance fitness was -0.25 ± 0.12. Work on “DnaJ homolog subfamily B member 1 T8I, P25685” yielded an abundance fitness of 0.036 ± 0.088. In the case of “DnaJ homolog subfamily B member 1 R13F, P25685”, the abundance fitness is reported as -0.15 ± 0.1. “DnaJ homolog subfamily B member 1 E38V, P25685” showed an abundance fitness of -0.006 ± 0.096. “DnaJ homolog subfamily B member 1 Q27E, P25685” gave an abundance fitness of -0.231 ± 0.36. In the case of “DnaJ homolog subfamily B member 1 Y5P, P25685”, the abundance fitness is reported as -0.232 ± 0.15. “DnaJ homolog subfamily B member 1 T8F, P25685” gave an abundance fitness of -0.352 ± 0.17. For “DnaJ homolog subfamily B member 1 Y24G, P25685”, the abundance fitness was -0.499 ± 0.1. With “DnaJ homolog subfamily B member 1 G10T, P25685” the abundance fitness was -0.564 ± 0.16. Work on “DnaJ homolog subfamily B member 1 Y5W, P25685” yielded an abundance fitness of -0.305 ± 0.22. Work on “DnaJ homolog subfamily B member 1 D65E, P25685” yielded an abundance fitness of -0.152 ± 0.2. Work on “DnaJ homolog subfamily B member 1 A12F, P25685” yielded an abundance fitness of -0.346 ± 0.092. Work on “DnaJ homolog subfamily B member 1 A15T, P25685” yielded an abundance fitness of -0.271 ± 0.078. “DnaJ homolog subfamily B member 1 L29I, P25685” showed an abundance fitness of 0.116 ± 0.12. Work on “DnaJ homolog subfamily B member 1 P33F, P25685” yielded an abundance fitness of -0.207 ± 0.093. In the case of “DnaJ homolog subfamily B member 1 A28M, P25685”, the abundance fitness is reported as -0.06 ± 0.088. In the case of “DnaJ homolog subfamily B member 1 G14M, P25685”, the abundance fitness is reported as -0.385 ± 0.096. For “DnaJ homolog subfamily B member 1 R26A, P25685”, the abundance fitness was 0.056 ± 0.18. “DnaJ homolog subfamily B member 1 G14Q, P25685” showed an abundance fitness of -0.251 ± 0.091. Substance “DnaJ homolog subfamily B member 1 R13T, P25685” has an abundance fitness of -0.138 ± 0.089. “DnaJ homolog subfamily B member 1 A49I, P25685” showed an abundance fitness of -0.304 ± 0.16. With “DnaJ homolog subfamily B member 1 A28I, P25685” the abundance fitness was 0.093 ± 0.095. Work on “DnaJ homolog subfamily B member 1 L55S, P25685” yielded an abundance fitness of -0.524 ± 0.086. “DnaJ homolog subfamily B member 1 D65Y, P25685” gave an abundance fitness of -0.261 ± 0.13. For “DnaJ homolog subfamily B member 1 K37H, P25685”, the abundance fitness was 0.05 ± 0.13. “DnaJ homolog subfamily B member 1 D34N, P25685” gave an abundance fitness of -0.039 ± 0.17. Work on “DnaJ homolog subfamily B member 1 T8W, P25685” yielded an abundance fitness of -0.281 ± 0.1. With “DnaJ homolog subfamily B member 1 I63A, P25685” the abundance fitness was 0.237 ± 0.097. “DnaJ homolog subfamily B member 1 P39T, P25685” gave an abundance fitness of 0.133 ± 0.13. Substance “DnaJ homolog subfamily B member 1 R26W, P25685” has an abundance fitness of -0.023 ± 0.081. “DnaJ homolog subfamily B member 1 Y31M, P25685” gave an abundance fitness of -0.164 ± 0.092. “DnaJ homolog subfamily B member 1 Y52A, P25685” gave an abundance fitness of -0.265 ± 0.083. Substance “DnaJ homolog subfamily B member 1 E18Q, P25685” has an abundance fitness of -0.231 ± 0.083. Work on “DnaJ homolog subfamily B member 1 A49W, P25685” yielded an abundance fitness of -0.307 ± 0.088. For “DnaJ homolog subfamily B member 1 A15L, P25685”, the abundance fitness was -0.801 ± 0.071. For “DnaJ homolog subfamily B member 1 A23R, P25685”, the abundance fitness was -0.442 ± 0.066. “DnaJ homolog subfamily B member 1 Y5F, P25685” gave an abundance fitness of -0.449 ± 0.16. With “DnaJ homolog subfamily B member 1 P39E, P25685” the abundance fitness was 0.064 ± 0.097. “DnaJ homolog subfamily B member 1 T8M, P25685” gave an abundance fitness of -0.121 ± 0.17. “DnaJ homolog subfamily B member 1 G40V, P25685” showed an abundance fitness of -0.133 ± 0.079. With “DnaJ homolog subfamily B member 1 Q7H, P25685” the abundance fitness was -0.246 ± 0.15. Work on “DnaJ homolog subfamily B member 1 Y6D, P25685” yielded an abundance fitness of -0.747 ± 0.16. With “DnaJ homolog subfamily B member 1 P39F, P25685” the abundance fitness was -0.041 ± 0.2. With “DnaJ homolog subfamily B member 1 V54Y, P25685” the abundance fitness was -0.211 ± 0.27. For “DnaJ homolog subfamily B member 1 L55T, P25685”, the abundance fitness was -0.636 ± 0.1. In the case of “DnaJ homolog subfamily B member 1 E42I, P25685”, the abundance fitness is reported as -0.105 ± 0.12. Work on “DnaJ homolog subfamily B member 1 F45Y, P25685” yielded an abundance fitness of -0.178 ± 0.17. Substance “DnaJ homolog subfamily B member 1 Q27I, P25685” has an abundance fitness of -0.057 ± 0.12. “DnaJ homolog subfamily B member 1 Q27D, P25685” gave an abundance fitness of 0.003 ± 0.15. With “DnaJ homolog subfamily B member 1 Y5K, P25685” the abundance fitness was -0.493 ± 0.15. “DnaJ homolog subfamily B member 1 E50S, P25685” showed an abundance fitness of -0.211 ± 0.066. Substance “DnaJ homolog subfamily B member 1 Y24H, P25685” has an abundance fitness of -0.38 ± 0.2. “DnaJ homolog subfamily B member 1 G40A, P25685” gave an abundance fitness of -0.128 ± 0.1. With “DnaJ homolog subfamily B member 1 R30N, P25685” the abundance fitness was 0.014 ± 0.1. For “DnaJ homolog subfamily B member 1 T8N, P25685”, the abundance fitness was -0.303 ± 0.18. Work on “DnaJ homolog subfamily B member 1 D4S, P25685” yielded an abundance fitness of -0.193 ± 0.19. In the case of “DnaJ homolog subfamily B member 1 F45E, P25685”, the abundance fitness is reported as -0.277 ± 0.095. “DnaJ homolog subfamily B member 1 V54W, P25685” showed an abundance fitness of -0.185 ± 0.16. Work on “DnaJ homolog subfamily B member 1 E19F, P25685” yielded an abundance fitness of -1.06 ± 0.08. Substance “DnaJ homolog subfamily B member 1 E19Y, P25685” has an abundance fitness of -1.06 ± 0.14. With “DnaJ homolog subfamily B member 1 R26V, P25685” the abundance fitness was 0.03 ± 0.15. “DnaJ homolog subfamily B member 1 E42G, P25685” gave an abundance fitness of -0.153 ± 0.097. In the case of “DnaJ homolog subfamily B member 1 R59D, P25685”, the abundance fitness is reported as 0.095 ± 0.21. In the case of “DnaJ homolog subfamily B member 1 Y52L, P25685”, the abundance fitness is reported as -0.39 ± 0.071. “DnaJ homolog subfamily B member 1 A51M, P25685” gave an abundance fitness of -1.1 ± 0.085. Work on “DnaJ homolog subfamily B member 1 E50C, P25685” yielded an abundance fitness of -0.311 ± 0.095. Substance “DnaJ homolog subfamily B member 1 L55V, P25685” has an abundance fitness of -0.347 ± 0.08. “DnaJ homolog subfamily B member 1 K35L, P25685” showed an abundance fitness of -0.55 ± 0.071. Substance “DnaJ homolog subfamily B member 1 D4M, P25685” has an abundance fitness of -0.196 ± 0.15. In the case of “DnaJ homolog subfamily B member 1 A49H, P25685”, the abundance fitness is reported as -0.132 ± 0.18. “DnaJ homolog subfamily B member 1 D53H, P25685” showed an abundance fitness of -0.262 ± 0.1. “DnaJ homolog subfamily B member 1 F45D, P25685” showed an abundance fitness of -0.352 ± 0.076. “DnaJ homolog subfamily B member 1 K46L, P25685” gave an abundance fitness of -0.639 ± 0.43. For “DnaJ homolog subfamily B member 1 R25P, P25685”, the abundance fitness was -0.462 ± 0.12. Substance “DnaJ homolog subfamily B member 1 A15M, P25685” has an abundance fitness of -0.627 ± 0.1. With “DnaJ homolog subfamily B member 1 Q27K, P25685” the abundance fitness was -0.021 ± 0.17. For “DnaJ homolog subfamily B member 1 K21A, P25685”, the abundance fitness was -0.071 ± 0.072. “DnaJ homolog subfamily B member 1 L29W, P25685” showed an abundance fitness of -0.111 ± 0.068. “DnaJ homolog subfamily B member 1 E47C, P25685” gave an abundance fitness of -0.218 ± 0.095.

From the Human Domainome abundance scans (Beltran et al. 2025)
